Results from the supplement of paper PMC10567573.
± gives the standard deviation.

Test: protein stability index of a GFP-peptide fusion (GPS, HEK-293T) (PSI 1-6); higher = more stable
[1] = treatment: DMSO, c terminus: a fixed tail appended
[2] = treatment: MLN4924 1 uM, 8 h, c terminus: a fixed tail appended
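Further: 24-mer peptide tiles fused after GFP, lentivirally expressed, FACS-sorted into six equal bins by GFP/DsRed ratio, decoded by Illumina sequencing, PSI is the read-weighted mean bin number.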

Sequence | protein stability index [1] | protein stability index [2] | protein stability index (treatment: DMSO, c terminus: native) | protein stability index (treatment: MLN4924 1 uM, 8 h, c terminus: native)
SSLEFTELLTLVNRKVSQRRVDFC [CASP6] | 2.37 ± 0.43 | 2.32 ± 0.087 | – | –
EDSDVEMVEDDSRKEMTAACTPRR [MLH1] | 5.54 ± 0.3 | 5.67 ± 0.18 | – | –
IRIKLDPCHPTVKNWRNFASKWGM [EDARADD] | 3.28 ± 0.61 | 2.58 ± 0.76 | – | –
AAVKAAREAFPSWSSRSPQERSRV [ALDH8A1] | 3.73 ± 0.23 | 3.88 ± 0.48 | – | –
EPEMAVFLQNAKTLLKKISEASKA [TRIM55] | 2.46 ± 0.3 | 2.25 ± 0.22 | – | –
SLQFDEKCLSIMLAEWEANPLICP [RPAIN] | 2.33 ± 0.24 | 2.29 ± 0.18 | – | –
EVQHLREEKSKQFLDLMETIDKQR [LRRC45] | 4.51 ± 0.32 | 4.49 ± 0.25 | – | –
EDWLSHALSRKKSQGLAREQHAGT [FBF1] | 3.9 ± 0.23 | 4.04 ± 0.14 | – | –
FFRKLLDCCQVSAPNRFFQKLNVF [NLN] | 2.02 ± 0.073 | 2.47 ± 0.74 | – | –
WMLTRKQFGLLSFFFAVLHAIYSL [STEAP1] | 1.95 ± 0.54 | 2.1 ± 0.27 | – | –
DHLGWVARGTGSGEDSSTSSSTPL [RTN2] | 4.73 ± 0.18 | 4.54 ± 0.25 | – | –
GDEISIKKKNTNKQEMGTYLRFIV [ZMYND11] | 2.12 ± 0.087 | 2.12 ± 0.24 | – | –
VTGMELEFKRLASSKAHTSRFISA [PTPRD] | 2.71 ± 0.33 | 2.81 ± 0.4 | – | –
TTVGYGDMKPITVGGKIVGSLCAI [KCNA4] | 2.23 ± 0.47 | 2.4 ± 0.27 | – | –
RTVAIWDVAEGYRKLSLKGHNDWV [WDR88] | 2.46 ± 0.38 | 2.54 ± 0.44 | – | –
PPLPTYHVLLEGEGLGQSLGNFKD [TRIM29] | 3.8 ± 0.085 | 3.7 ± 0.14 | – | –
EVKFPNASDMFRRLRDAGFRVTLW [MYORG] | 2.97 ± 0.74 | 2.17 ± 0.31 | – | –
QRNGLVFIYDMCGSNYANFELDLG [PTPN9] | 2.84 ± 0.23 | 2.37 ± 0.57 | – | –
PRLIAKVEGKGNGIKTVIVNMVDV [EIF5] | 2.34 ± 0.41 | 2.37 ± 0.34 | – | –
YNDVMQENYETVISLALFVLPKPK [ZNF75A] | 2.82 ± 0.64 | 2.71 ± 0.84 | – | –
LQTPLDIRLKESINCQLSDPSSTK [TRIM14] | 4.62 ± 0.29 | 4.55 ± 0.34 | – | –
SIERSHRIATETDQIGSEIIEELG [VTI1B] | 4.88 ± 0.33 | 5 ± 0.2 | – | –

Sequence | protein stability index [1] | protein stability index [2] | protein stability index (treatment: DMSO, c terminus: native) | protein stability index (treatment: MLN4924 1 uM, 8 h, c terminus: native)
DHTSEAVRNLFGLDPSSGAIHVLG [PCDHGC5] | 3.16 ± 0.24 | 3.09 ± 0.19 | – | –
LVDEEEKVLIQKNLGPKSKVLILR [ADD1] | 3.16 ± 0.5 | 2.84 ± 0.25 | – | –
EMFTKPVVILPCQHNLCRKCASDI [TRIM55] | 2.96 ± 0.3 | 2.83 ± 0.47 | – | –
LWARGTWTQATGLGCALLAAHAVV [SOAT2] | 3.01 ± 0.11 | 3.2 ± 1.6 | – | –
HLPADSEVTLEANPTSAPGSRLAE [RSAD1] | 5.49 ± 0.077 | 5.39 ± 0.24 | – | –
YSFYLFHPLAYGMVGPLAQDPQSP [POMT2] | 2.45 ± 0.7 | 2.67 ± 0.43 | – | –
CELAQDKEAAEAIEAEGATAPLTE [CTNNB1] | 5.49 ± 0.41 | 5.53 ± 0.23 | – | –
YRQWHAKIFVENLRRQKSLRLEWE [IQUB] | 2.29 ± 0.54 | 1.87 ± 0.28 | – | –
QDVTVVGSAGRLLAVGTDLYGQRN [GFOD1] | 3.4 ± 0.26 | 3.63 ± 0.32 | – | –
ESQVKSLCEKAKEILTKESNVQEV [PPP2CA] | 5.45 ± 0.11 | 5.18 ± 0.18 | – | –
DEAQGACLQQKQVVAEAQTRVSQL [LRRC45] | 5.23 ± 0.12 | 5.09 ± 0.31 | – | –
RENILVSLGAVGEGFHNYHHSFPY [SCD] | 2.22 ± 0.13 | 2.11 ± 0.14 | – | –
RWLDESDAEMELRAKEEERLNKLR [HACD3] | 4.5 ± 0.3 | 4.84 ± 0.42 | – | –
FKYINTVISCTIFIVGMVGNATLL [EDNRA] | 3.56 ± 0.57 | 2.89 ± 0.61 | – | –
YIESSTKVYDDMAFRYLSWILFPL [CLPTM1] | 2.73 ± 0.13 | 2.61 ± 0.47 | – | –
RKPDPMCVFTYVQSLYNHLRRFE [SMTNL2] | – | – | 2.74 ± 0.62 | 2.72 ± 0.36
KVRSLETENSALQLQVTEREEVRG [LMNB1] | 5.22 ± 0.35 | 5.53 ± 0.15 | – | –
TEFKELDGLREALANLRGLSEEER [CCDC89] | 5.05 ± 0.28 | 4.85 ± 0.28 | – | –
DEGGITKQPPVTQSKTASDKSPST [FBF1] | 5.44 ± 0.21 | 5.56 ± 0.19 | – | –
YERSFIHKIKHKHILAKNYFSQVP [IQUB] | 2.12 ± 0.61 | 2.24 ± 0.27 | – | –
SCPFFETSAAYRYYIDDVFHALVR [RIT1] | 2.41 ± 0.36 | 2.54 ± 0.38 | – | –
VFITILIIALIALSVGQYNCPGQY [CD69] | 2.6 ± 0.38 | 2.61 ± 0.57 | – | –

Sequence | protein stability index [1] | protein stability index [2] | protein stability index (treatment: DMSO, c terminus: native) | protein stability index (treatment: MLN4924 1 uM, 8 h, c terminus: native)
VLSRLQDAAVVRPGFLSTAEEETL [ALKBH7] | 4.21 ± 0.17 | 4.12 ± 0.55 | – | –
IEDAAEPKEPAPPNGSAAEPPTEA [PALM] | 5.54 ± 0.24 | 5.47 ± 0.22 | – | –
GIVGGFTQMIREGGARSLWRGNGI [SLC25A25] | 2.22 ± 0.093 | 2.27 ± 0.2 | – | –
PPSRAPTAAPPPPPPSRPSVAVPP [WASL] | 4.77 ± 0.21 | 4.86 ± 0.21 | – | –
LKFLEENKIKVMHKQLLLFHNAVS [ARFIP2] | 2.41 ± 0.44 | 2.17 ± 0.26 | – | –
EGTNGQLDYSFGDHTSEAVRNLFG [PCDHGC5] | 3.89 ± 0.13 | 3.9 ± 0.32 | – | –
DISPPIFRRGEKLRVISDEGGWWK [SLA] | 3.02 ± 0.71 | 2.87 ± 0.42 | – | –
STGTSRWPSAKSAGWTLATLGEQG [SCNN1D] | 3.17 ± 0.16 | 3.16 ± 0.31 | – | –
SEKTDESDTIPYLKKFLYNFDNPW [MIA2] | 2.78 ± 0.14 | 2.11 ± 0.039 | – | –
LTQPLQGGTPHCEPCQLPSESPGS [DNAAF3] | 5.17 ± 0.2 | 5.12 ± 0.12 | – | –
ACALLLTSVDHDRAPVVGVRVNVL [DLC1] | 2.33 ± 0.32 | 2.68 ± 0.36 | – | –
QFLNDRLASYLEKVRQLERDNAEL [KRT33B] | 3.18 ± 0.18 | 3.33 ± 0.28 | – | –
LDCADALLKAGADVNKTDHSQRTA [INVS] | 5.09 ± 0.38 | 5.13 ± 0.43 | – | –
RAMKIPFTNDKIINLPVEEFNELL [NFE2L1] | 2.87 ± 0.2 | 3.01 ± 0.67 | – | –
SQITDSEHNSSLVSQQTGSPGKQP [ZNF8] | 5.33 ± 0.16 | 5.26 ± 0.23 | – | –
PGAGDPAPGIGPPEPWPGGCTGDE [MYCL] | 5.38 ± 0.057 | 5.16 ± 0.43 | – | –
PNIRNMAPNSLSAPTMLHNSSGDF [TRAF3IP2] | 4.16 ± 0.34 | 4.43 ± 0.19 | – | –
IEEDMNNSIAHYRQVNIRTANCTT [KCNA1] | 3.71 ± 0.55 | 3.57 ± 0.48 | – | –
VDRCGASVEAGGSVHFDGETIEGA [FEM1A] | 4.87 ± 0.24 | 4.92 ± 0.18 | – | –
IQQGINAVNQEAMNNAQRIEKWVI [ACSBG2] | 2.89 ± 0.44 | 2.94 ± 0.51 | – | –
NTKEKIAFFASHQCSNRIGSMKIK [FBXO34] | 2.79 ± 0.19 | 2.72 ± 0.46 | – | –
